Biological target: EBOV GP ectodomain, mucin-like domain deleted (EBOV GP[change] ectodomain), Mayinga, residues 33-651, double Strep-tag (Zaire ebolavirus (EBOV), Mayinga) (UniProt Q05320)
Assay: cryo-EM structure

**Q.** Which stoichiometry N does the source give for “EBOV GP ectodomain, mucin-like domain deleted (EBOV GP[change] ectodomain), Mayinga, residues 33-651, double Strep-tag (from UniProt Q05320 33-651) (domain or fragment)” here?
**A.** Its stoichiometry N is 3.
